# Laboratory results: patent US20130123460A1, “PEPTIDE FOR IMPROVING BIOSTABILITY OF BIOACTIVE SUBSTANCE, AND BIOACTIVE SUBSTANCE HAVING IMPROVED BIOSTABILITY” (priority 2010, published 2013)
# Molecular target: endogenous VIP receptor of SUP-T1 cells (human)
# Experiment: cell-based or functional assay
row,Substance,"cAMP Productivity in SUP-T1 Cells, Activity Intensity (%) relative to native VIP [%]"
1,VIP(1-28)-GAm(28-44)-NH2 (peptide),67
2,VIP(1-28)-GAm(37-44)-NH2 (peptide),81
3,VIP(1-28)-GAm(32-44)-NH2 (peptide),85

# Molecular target: endogenous GLP-1 receptor of MIN 6 cells (mouse) (UniProt O35659)
# Experiment: cell-based or functional assay
Substance,"Insulin Secretion Capacity of GLP-1 Peptide Complex in MIN 6 Cells (% of control), at 1000 pM",Insulin Secretion Capacity of GLP-1 Peptide Complex in MIN 6 Cells (EC50 value) [nM]
[Ser8]-GLP-1(7-35)-GAm(33-44)-NH2 (peptide),118 % of control,–
[Ser8]-GLP-1(7-35)-GAm(35-44)-NH2 (peptide),115 % of control,–
[Ser8]-GLP-1(7-35)-GAm(37-44) (peptide),98 % of control,–
[Ser8]-GLP-1(7-35)-GAm(32-44)-NH2 (peptide),109 % of control,–
[Ser8]-GLP-1(7-35)-GAm(33-44) (peptide),89 % of control,–
[Ser8]-GLP-1(7-35)-GAm(25-46)-NH2 (peptide),104 % of control,–
[Ser8]-GLP-1(7-35)-GAm(30-42)-NH2 (peptide),85 % of control,–
[Ser8]-GLP-1(7-35)-GAm(1-46)-NH2 (peptide),18 % of control,> 1
[Ser8]-GLP-1(7-35)-GAm(28-42)-NH2 (peptide),105 % of control,–
[Ser8]-GLP-1(7-35)-GAm(21-46)-NH2 (peptide),45 % of control,–
[Ser8]-GLP-1(7-35)-GAm(38-42)-NH2 (peptide),125 % of control,0.5
[Ser8]-GLP-1(7-35)-GAm(31-44)-NH2 (peptide),83 % of control,–
[Ser8]-GLP-1(7-35)-GAm(28-44) (peptide),139 % of control,–
[Ser8]-GLP-1(7-35)-GAm(37-44)-NH2 (peptide),82 % of control,–
[Ser8]-GLP-1(7-35)-GAm(38-44)-NH2 (peptide),120 % of control,–
[Ser8]-GLP-1(7-35)-GAm(17-46)-NH2 (peptide),39 % of control,> 1
[Ser8]-GLP-1(7-35)-GAm(27-46)-NH2 (peptide),106 % of control,–
[Ser8]-GLP-1(7-35)-GAm(22-46)-NH2 (peptide),100 % of control,–
[Ser8]-GLP-1(7-35)-GAm(28-44)-NH2 (peptide),105 % of control,–

# Molecular target: endogenous SSTR 5 of MIN 6 cells (mouse) (UniProt O08858)
# Sequence (O08858 whole entry): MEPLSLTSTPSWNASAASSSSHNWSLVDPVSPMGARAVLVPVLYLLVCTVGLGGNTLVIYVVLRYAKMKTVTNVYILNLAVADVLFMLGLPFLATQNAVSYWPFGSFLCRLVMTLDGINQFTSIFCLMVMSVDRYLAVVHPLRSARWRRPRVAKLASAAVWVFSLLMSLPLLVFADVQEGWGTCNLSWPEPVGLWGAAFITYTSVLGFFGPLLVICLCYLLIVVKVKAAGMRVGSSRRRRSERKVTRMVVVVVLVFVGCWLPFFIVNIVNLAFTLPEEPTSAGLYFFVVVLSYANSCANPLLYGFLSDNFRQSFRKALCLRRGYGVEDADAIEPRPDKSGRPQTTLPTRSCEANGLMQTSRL
# Experiment: cell-based or functional assay
row,Substance,"Suppressibility of Insulin Secretion in MIN 6 Cells, Suppression rate of insulin secretion (%) relative to native SRIF [%]"
1,SRIF(1-14)-NH2 (peptide),100
